From patent US20060239968A1 (University of Texas, published 2006)
Positions of bridges follow the written chain, without caps; N, C: chain ends. Non-standard residues stand in square brackets, D forms with d. No end group written: not given here.

Legend:
[1] = target: T1, leptin receptor (OB-R), recombinant (UniProt P48357 22-839, limits assumed); test: in vitro ligand-receptor binding assay, phage on recombinant receptor
T1 sequence (looked up): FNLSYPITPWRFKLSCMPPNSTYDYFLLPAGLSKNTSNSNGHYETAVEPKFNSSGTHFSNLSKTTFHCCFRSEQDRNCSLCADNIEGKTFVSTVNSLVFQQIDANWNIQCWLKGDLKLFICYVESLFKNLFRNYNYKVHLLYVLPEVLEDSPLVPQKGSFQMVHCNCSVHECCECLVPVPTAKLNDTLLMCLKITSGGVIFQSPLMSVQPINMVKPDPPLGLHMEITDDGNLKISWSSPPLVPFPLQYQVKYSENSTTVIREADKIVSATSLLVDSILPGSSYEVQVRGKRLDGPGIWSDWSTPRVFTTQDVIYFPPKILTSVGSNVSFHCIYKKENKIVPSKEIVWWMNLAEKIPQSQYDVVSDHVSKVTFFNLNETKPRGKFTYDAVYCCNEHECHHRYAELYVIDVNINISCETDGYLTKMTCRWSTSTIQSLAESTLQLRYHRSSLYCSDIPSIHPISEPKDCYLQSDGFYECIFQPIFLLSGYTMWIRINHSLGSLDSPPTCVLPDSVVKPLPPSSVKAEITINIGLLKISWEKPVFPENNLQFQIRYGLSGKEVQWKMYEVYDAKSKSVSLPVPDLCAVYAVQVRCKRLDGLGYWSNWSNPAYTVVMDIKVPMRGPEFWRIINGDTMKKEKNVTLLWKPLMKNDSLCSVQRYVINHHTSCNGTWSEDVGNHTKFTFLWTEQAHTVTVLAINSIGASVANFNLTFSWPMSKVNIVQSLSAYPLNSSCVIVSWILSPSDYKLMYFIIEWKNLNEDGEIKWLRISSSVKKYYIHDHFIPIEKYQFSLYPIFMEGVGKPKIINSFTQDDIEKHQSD
Description: (§1) Recombinant IL-11Rα, vascular endothelial growth factor receptor-1 (VEGFR1) or leptin receptor (OB-R) were incubated with phage displaying the […] (SEQ ID NO:37) peptide. VEGFR1 was used as a representative vascular receptor, while OB-R was used because it shares a co-receptor with IL-11Rα. An unrelated phage clone displaying the peptide […] (SEQ ID NO:38) and insertless fd-tet phage were used as controls. […] Binding of […] (SEQ ID NO:37)-phage to IL-11Rα was specific, since it was inhibited by the native IL-11 ligand in a concentration-dependent manner (not shown). […] These observations with normal prostate tissues were followed by an examination of the expression of IL-11Rα in tumors, as discussed in the present Example.

[2] = target: vascular endothelial growth factor receptor-1 (VEGFR1), recombinant (UniProt P17948 27-756, limits assumed); test: as above
Description: as §1

[3] = target: T2, prohibitin (B cell receptor associated protein) (mouse); test: immunoprecipitation from mouse adipose tissue extract, SDS-PAGE
T2 sequence (P67778 2-272, looked up): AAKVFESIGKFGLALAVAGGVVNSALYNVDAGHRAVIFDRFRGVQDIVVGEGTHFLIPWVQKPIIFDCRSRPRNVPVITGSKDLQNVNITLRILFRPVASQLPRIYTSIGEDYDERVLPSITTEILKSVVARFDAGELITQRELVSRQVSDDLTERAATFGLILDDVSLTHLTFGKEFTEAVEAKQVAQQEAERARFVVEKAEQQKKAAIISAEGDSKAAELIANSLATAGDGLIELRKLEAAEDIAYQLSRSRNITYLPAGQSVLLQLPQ

[4] = target: T3, Recombinant IL-11Rα (IL-11 receptor alpha) (UniProt Q14626 23-370, limits assumed); test: in vitro ligand-receptor binding assay, phage on recombinant receptor
T3 construct: also called immobilized IL-11Rα
T3 sequence (looked up): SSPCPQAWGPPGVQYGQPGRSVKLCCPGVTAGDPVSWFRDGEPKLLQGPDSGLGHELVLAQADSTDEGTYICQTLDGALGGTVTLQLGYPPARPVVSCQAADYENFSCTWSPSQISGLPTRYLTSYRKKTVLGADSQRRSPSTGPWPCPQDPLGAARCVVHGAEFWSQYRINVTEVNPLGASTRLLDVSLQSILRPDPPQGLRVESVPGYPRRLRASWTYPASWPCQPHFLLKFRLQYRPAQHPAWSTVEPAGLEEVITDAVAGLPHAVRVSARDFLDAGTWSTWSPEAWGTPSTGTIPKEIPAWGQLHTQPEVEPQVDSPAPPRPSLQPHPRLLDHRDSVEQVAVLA
Description: as §1

Sequence of vascular endothelial growth factor receptor-1 (VEGFR1), recombinant (P17948 27-756 limits assumed): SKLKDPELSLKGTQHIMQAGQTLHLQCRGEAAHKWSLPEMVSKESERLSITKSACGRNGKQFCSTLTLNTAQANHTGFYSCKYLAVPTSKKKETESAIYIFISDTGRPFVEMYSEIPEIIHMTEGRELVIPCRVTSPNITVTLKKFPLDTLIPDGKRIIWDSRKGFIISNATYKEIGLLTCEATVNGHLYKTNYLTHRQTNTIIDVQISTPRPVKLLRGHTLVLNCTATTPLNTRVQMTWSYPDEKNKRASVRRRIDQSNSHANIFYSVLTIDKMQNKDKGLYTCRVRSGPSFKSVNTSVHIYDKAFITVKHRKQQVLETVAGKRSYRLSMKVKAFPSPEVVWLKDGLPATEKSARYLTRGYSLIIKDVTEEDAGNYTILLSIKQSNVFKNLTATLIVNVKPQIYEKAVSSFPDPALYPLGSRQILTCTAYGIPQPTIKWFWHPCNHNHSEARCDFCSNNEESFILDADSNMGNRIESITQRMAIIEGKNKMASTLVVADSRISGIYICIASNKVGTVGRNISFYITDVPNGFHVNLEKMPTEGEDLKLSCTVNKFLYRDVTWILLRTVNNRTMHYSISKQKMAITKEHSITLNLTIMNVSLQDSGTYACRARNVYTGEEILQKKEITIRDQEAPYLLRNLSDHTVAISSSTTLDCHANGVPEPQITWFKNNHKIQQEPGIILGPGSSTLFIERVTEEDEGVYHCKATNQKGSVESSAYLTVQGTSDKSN

B1: CGRRAGGSC (SEQ ID NO:37)-displaying phage (peptide)
peptide: CGRRAGGSC
modifications: not fully specified (bridges); cysteine pairing not given here; also: displayed on filamentous phage
notes: also called prostate-homing phage displaying an IL-11 peptide mimic
What does the source list for B1?
binding result [1]: no binding; binding result [2]: no binding

B2: … (SEQ ID NO:81) conjugated to (KLAKLAK)2 (SEQ ID NO:1) (peptide)
peptide: CKGGRAKDCGG[dK][dL][dA][dK][dL][dA][dK][dK][dL][dA][dK][dL][dA][dK]
modifications: disulfide 1-9 (inferred); not fully specified; also: order of the parts not given here explicitly
For B2, which fold enrichment against the CARAC (SEQ ID NO:71) precipitated fraction [3] is on record?
Its fold enrichment against the CARAC (SEQ ID NO:71) precipitated fraction is over 10 fold.

B3: unrelated phage clone displaying the peptide CRVDFSKGC (SEQ ID NO:38) (peptide)
peptide: CRVDFSKGC
notes: used as a control; also called control phage
Does B3 bind [4]?
Result: no binding
